Tests used:
[1] = biological target: ZNF432 full-length (Homo sapiens, UniProt O94892 1-652); assay: EMSA; no fixation, 1 mM CaCl2; 100 nM DNA stated, protein 1-6 nM; 25 mM MOPS pH 7.0, 60 mM KCl, 0.2% Tween, 2 mM DTT, CaCl2 (40 nM as printed with glutaraldehyde fixation; 1 mM without fixation for Kd), 37 C 30 min; 8% TBE acr; settings: protein: recombinant; tags: C-terminal 10xHis (GST removed with PreScission); label: 32P (gamma-32P); single strand
[2] = biological target: ZNF432 KRAB domain (Homo sapiens, UniProt O94892 1-205); assay: EMSA; negligible binding; 1-6 nM protein, no fixation; 25 mM MOPS pH 7.0, 60 mM KCl, 0.2% Tween, 2 mM DTT, CaCl2 (40 nM as printed with glutaraldehyde fixation; 1 mM without fixation for Kd), 37 C 30 min; 8% TBE acr; settings: protein: recombinant; tags: His (GST removed with PreScission); label: 32P (gamma-32P); single strand
ZNF432 KRAB domain, sequence (O94892 1-205): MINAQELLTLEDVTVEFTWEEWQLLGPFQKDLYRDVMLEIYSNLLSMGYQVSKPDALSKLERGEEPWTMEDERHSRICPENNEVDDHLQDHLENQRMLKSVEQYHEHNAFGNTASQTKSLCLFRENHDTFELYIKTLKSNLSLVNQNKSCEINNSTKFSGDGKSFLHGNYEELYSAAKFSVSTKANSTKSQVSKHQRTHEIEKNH

ZNF432 full-length, sequence (O94892 whole entry, the tested form may be a part): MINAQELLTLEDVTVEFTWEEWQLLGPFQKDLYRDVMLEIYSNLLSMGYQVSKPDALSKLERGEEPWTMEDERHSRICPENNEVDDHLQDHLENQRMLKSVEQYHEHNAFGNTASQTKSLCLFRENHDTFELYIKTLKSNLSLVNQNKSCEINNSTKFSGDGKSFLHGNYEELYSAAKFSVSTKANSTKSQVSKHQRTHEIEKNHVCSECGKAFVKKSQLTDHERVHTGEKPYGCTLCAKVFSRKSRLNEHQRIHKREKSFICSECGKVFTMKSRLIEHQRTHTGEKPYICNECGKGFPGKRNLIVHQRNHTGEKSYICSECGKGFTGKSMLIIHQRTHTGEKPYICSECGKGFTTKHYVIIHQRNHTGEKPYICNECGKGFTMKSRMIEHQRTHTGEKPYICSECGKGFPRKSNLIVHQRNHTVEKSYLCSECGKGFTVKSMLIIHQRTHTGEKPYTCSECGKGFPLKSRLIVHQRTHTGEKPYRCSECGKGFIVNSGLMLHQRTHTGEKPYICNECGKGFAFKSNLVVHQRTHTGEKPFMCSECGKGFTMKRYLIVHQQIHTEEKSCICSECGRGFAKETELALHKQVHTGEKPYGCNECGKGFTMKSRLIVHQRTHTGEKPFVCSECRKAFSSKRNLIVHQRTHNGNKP

B1: Single-stranded DNA (ssDNA)
DNA: GGGCGAATTGGGCCCGACGTCGCATGCTCCTCTAGACTCGAGGAATTCGGTACCCCGGGTTCGAAATCGATAAGCTTACAGTCTCCATTTAAAGGACAAG
Question: What does the source list for B1?
Answer: Kd [1]: 5.41 nM; binding result [2]: no binding

Reference: publication PMC10639050, “ZNF432 stimulates PARylation and inhibits DNA resection to balance PARPi sensitivity and resistance”
